Legend:
[1] = target: T1, ALCAM (Activated leukocyte cell adhesion molecule) (Homo sapiens (Human), UniProt Q13740 28-583); assay: flow cytometry histograms on various cell lines, antigen identified later
T1 construct: Native protein on cancer cell lines; also called CD166 antigen; CD166
T1 sequence: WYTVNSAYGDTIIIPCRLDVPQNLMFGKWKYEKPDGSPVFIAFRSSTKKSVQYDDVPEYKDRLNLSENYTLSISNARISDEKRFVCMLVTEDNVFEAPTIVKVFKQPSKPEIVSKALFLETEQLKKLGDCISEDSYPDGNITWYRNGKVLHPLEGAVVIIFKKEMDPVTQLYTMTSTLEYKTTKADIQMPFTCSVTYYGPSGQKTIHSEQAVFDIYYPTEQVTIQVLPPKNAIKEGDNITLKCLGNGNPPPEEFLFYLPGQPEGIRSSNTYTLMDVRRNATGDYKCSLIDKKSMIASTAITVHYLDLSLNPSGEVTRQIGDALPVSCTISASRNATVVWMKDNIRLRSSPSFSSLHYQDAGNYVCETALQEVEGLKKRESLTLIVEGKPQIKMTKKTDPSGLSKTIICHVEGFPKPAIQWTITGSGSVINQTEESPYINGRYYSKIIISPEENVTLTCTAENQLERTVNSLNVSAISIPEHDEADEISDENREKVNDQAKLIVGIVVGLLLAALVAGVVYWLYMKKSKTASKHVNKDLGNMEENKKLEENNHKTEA

[2] = target: T1, ALCAM (Activated leukocyte cell …); assay: immunoprecipitation from biotin-labelled cell lysate with pp type antibody, mass spectrometry
CD44 = CD44 (Homo sapiens (Human), UniProt P16070 24-742); assay: antigen assigned by the filing's classifying and identification method; details for this clone not given
Sequence of CD44 (P16070 24-742): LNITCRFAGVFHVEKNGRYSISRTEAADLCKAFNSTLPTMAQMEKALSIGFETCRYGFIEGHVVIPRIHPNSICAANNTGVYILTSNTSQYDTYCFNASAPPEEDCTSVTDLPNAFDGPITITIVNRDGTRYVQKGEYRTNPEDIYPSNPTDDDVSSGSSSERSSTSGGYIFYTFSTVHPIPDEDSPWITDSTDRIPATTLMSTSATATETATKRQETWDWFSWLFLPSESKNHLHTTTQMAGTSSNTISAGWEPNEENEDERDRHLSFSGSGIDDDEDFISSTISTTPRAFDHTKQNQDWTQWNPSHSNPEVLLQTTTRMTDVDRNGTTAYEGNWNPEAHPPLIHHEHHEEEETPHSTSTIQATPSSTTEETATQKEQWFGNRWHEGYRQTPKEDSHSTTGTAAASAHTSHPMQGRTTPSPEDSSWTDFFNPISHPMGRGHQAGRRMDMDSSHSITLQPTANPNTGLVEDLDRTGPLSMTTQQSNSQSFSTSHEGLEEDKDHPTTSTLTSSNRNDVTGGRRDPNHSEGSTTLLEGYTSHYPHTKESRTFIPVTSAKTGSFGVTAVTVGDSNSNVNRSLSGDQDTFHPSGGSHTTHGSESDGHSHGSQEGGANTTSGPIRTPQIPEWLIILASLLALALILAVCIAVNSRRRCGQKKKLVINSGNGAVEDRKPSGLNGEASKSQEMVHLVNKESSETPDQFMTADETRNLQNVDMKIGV

CD73 = target: T2, CD73 (Homo sapiens (Human), UniProt P21589 27-549, limits assumed); assay: as above
T2 construct: also called 5-prime-ribonucleotide phosphohydrolase
T2 sequence: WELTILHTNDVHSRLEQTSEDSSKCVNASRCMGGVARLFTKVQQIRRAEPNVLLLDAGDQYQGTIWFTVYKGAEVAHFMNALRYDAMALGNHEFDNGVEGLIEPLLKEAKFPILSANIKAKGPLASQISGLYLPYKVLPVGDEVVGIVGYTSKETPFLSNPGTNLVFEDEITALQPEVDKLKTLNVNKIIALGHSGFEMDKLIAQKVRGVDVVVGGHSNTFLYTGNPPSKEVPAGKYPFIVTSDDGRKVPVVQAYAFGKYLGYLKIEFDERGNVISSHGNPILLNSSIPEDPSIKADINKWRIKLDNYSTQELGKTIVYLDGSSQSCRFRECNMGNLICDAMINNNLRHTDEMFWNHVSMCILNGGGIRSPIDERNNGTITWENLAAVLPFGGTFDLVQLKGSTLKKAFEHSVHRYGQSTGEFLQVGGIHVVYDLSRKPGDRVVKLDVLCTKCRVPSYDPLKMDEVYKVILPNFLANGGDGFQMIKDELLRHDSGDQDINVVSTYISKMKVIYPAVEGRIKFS

EpCAM = target: T3, EpCAM (Homo sapiens (Human), UniProt P16422 24-314); assay: as above
T3 chain: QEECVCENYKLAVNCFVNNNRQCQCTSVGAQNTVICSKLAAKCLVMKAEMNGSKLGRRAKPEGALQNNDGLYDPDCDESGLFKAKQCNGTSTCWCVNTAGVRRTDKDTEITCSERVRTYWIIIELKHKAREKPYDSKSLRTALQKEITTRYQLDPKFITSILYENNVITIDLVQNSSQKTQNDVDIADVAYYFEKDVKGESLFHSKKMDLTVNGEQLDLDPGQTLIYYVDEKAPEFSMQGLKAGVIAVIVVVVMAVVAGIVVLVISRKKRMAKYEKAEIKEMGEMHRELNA

[3] = target: T4, HGFR (Hepatocyte growth factor receptor) (Homo sapiens (Human), UniProt P08581 25-1390); assay: as above
T4 construct: also called Met
T4 sequence (P08581 25-1390 L1272V limits assumed): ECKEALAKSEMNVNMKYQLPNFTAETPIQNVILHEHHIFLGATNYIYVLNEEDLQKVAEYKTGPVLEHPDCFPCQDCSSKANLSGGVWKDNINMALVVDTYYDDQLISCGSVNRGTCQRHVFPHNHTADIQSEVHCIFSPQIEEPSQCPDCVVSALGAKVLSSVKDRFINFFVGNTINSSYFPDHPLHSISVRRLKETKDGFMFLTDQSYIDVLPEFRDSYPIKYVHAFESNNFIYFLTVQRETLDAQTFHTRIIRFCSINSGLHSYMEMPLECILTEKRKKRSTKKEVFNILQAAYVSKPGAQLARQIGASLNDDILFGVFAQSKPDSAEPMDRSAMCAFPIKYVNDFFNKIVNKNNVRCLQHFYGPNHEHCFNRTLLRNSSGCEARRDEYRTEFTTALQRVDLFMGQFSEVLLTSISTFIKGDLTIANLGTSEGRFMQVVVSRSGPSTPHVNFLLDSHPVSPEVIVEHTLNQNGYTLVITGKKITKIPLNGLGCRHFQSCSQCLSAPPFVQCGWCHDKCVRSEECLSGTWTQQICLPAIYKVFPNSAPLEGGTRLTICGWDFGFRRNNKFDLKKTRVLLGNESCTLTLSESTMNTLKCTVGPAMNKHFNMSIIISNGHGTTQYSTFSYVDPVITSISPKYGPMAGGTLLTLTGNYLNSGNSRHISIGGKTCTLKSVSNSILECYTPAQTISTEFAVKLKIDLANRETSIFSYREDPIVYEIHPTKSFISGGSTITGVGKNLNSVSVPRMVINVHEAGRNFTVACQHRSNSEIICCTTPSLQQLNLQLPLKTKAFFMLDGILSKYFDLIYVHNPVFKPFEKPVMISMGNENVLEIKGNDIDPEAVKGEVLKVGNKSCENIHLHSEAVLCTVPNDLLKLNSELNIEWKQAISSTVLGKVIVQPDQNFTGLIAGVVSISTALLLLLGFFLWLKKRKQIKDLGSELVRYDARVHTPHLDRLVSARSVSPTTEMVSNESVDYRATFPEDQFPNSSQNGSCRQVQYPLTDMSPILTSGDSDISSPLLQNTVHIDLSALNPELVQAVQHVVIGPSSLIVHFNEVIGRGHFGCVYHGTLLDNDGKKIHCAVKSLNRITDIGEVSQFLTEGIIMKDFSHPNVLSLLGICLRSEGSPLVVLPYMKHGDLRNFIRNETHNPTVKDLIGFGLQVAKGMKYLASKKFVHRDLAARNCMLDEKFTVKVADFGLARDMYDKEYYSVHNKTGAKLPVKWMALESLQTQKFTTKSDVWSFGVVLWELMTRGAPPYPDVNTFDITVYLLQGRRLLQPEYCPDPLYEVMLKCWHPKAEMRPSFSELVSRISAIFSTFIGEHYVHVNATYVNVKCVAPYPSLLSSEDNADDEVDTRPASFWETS

CD46 antigen = target: T5, CD46 antigen (Homo sapiens (Human), UniProt P15529 35-392); assay: as above
T5 construct: Native protein on cancer cell lines; also called MCP (Membrane Co-factor Protein); gp45-70
T5 sequence: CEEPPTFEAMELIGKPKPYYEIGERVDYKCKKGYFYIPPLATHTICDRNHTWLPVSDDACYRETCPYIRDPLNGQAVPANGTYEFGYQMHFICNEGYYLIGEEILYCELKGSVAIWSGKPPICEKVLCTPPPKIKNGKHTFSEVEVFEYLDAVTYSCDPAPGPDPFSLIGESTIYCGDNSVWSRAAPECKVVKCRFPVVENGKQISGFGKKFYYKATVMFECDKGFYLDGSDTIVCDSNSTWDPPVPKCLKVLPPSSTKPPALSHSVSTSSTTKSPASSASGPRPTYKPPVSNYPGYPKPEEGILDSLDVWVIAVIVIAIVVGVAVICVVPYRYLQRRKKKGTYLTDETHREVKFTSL

[4] = target: T6, LAR (Leukocyte common Antigen-Related) (Homo sapiens (Human), UniProt P10586 30-1907, limits assumed); assay: as above
T6 construct: also called PTP-LAR; protein tyrosine phosphatase receptor type F (PTPRF)

B1: 035-234 antibody (antibody, V domains shown)
VH: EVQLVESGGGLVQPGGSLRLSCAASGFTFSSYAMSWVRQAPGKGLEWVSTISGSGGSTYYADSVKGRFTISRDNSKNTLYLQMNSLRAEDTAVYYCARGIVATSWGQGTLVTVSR
VL: SYELTQPPSVSVAPGQTARITCGGNKIGSKSVHWYQQKQGQAPVLVIYLDRDRPSGIPERFSGSNSGNTATLTITRVEAEDEADYYCHLWDSGSDQVFGGGTKLTVLG
notes: Clone of the scFv-CL-cp3 phage library; pp type (protein A fusion) used for immunoprecipitation
binding result [1]: binds

B2: 040-107 antibody (antibody, V domains shown)
VH: EVQLVESGGGVVQPGGSLRLSCAASGFNFDVYGMNWVRQVPGKGLEWVSLINGDGGLRYYADSVKGRFTVSRDNSRNSLYLQMNSLRSEDTALYYCVKGNFQQWGQGTLVTVSR
VL: SYVLTQPPSVSVAPGKTARITCGGNNIGSKSVHWYQQKPGQAPVLVIYYDSDRPSGIPERFSGSNSGNTATLTISRVEAGDEADYYCQVWDSSSDHVVFGGGTKLTVLG
notes: as for B1
binding result [1]: binds

B3: 041-118 antibody (antibody, V domains shown)
VH: EVQLVESGGGLVQPGGSLRLSCAASGFTFDDYAMHWVRQAPGKGLEWVSLISGDGGSTYYADSVKDRFTISRDNSKNSLYLQMNSLRAEDTAVYYCARGNYFDYWGQGTLVTVSR
VL: SYELTQPLSVSVALGQTARITCGGNNIGSKNVHWYQQKPGQAPVLVIYRDSNRPSGIPERFSGSNSGNTATLTISRAQAGDEADYYCQVWDSSVVFGGGTKLTVLG
notes: as for B1
binding result [2]: binds

B4: 064-003 antibody (antibody, V domains shown)
VH: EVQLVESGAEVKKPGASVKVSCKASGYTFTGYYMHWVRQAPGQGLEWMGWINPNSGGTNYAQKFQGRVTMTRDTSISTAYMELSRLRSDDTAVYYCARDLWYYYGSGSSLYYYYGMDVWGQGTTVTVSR
VL: QSVLTQPPSVSGAPGQRVTISCTGSSSNIGAGYDVHWYQQLPGTAPKLLIYGNSNRPSGVPDRFSGSKSGTSASLAITGLQAEDEADYYCQSYDSSLSGVVFGGGTKLTVLG
notes: Clone of the scFv-CL-cp3 phage library
binding result (CD44): binds

B5: 067-213 antibody (antibody, V domains shown)
VH: EVQLVESGGGLVQPGRSLRLSCAASGFTFDDYAMHWVRQAPGKGLEWVSGISWNSGSIGYADSVKGRFTISRDNAKNSLYLQMNSLRAEDTALYYCVRSGSYNYYYYGMDVWGQGTTVTVSR
VL: not shown
notes: as for B4
binding result (CD73): binds

B6: 067-153 antibody (antibody, V domains shown)
VH: QVQLQESGGGLVQPGGSLRLSCTTSGFTFTSYAMSWVRQAPGKGLEWVSSISGSGGITYYADSVKGRFTISRDNSKNTLYLQMNSLRAEDTAVYYCAKDRVLVPASSSYFDYWGQGTLVTVSR
VL: SSELTQDPAVSVALGQTVRITCQGDSLRSYYASWYQQKPGQAPVLVIYGKNNRPSGIPDRFSGSSSGNTASLTITGAQAEDEADYYCNSRDSSGNHVVFGGGTKLTVLG
notes: as for B4
binding result (EpCAM): binds

B7: 067-126 antibody (antibody, V domains shown)
VH: QVQLQESGPGLVKPSGTLSLTCAVSGGSISSSNWWSWVRQPPGKGLEWIGEIYHSGSTNYNPSLKSRVTISVDKSKNQFSLKLSSVTAADTAVYYCARGGSYYFDYWGQGTLVTVSR
VL: QSALTQPASVSGSPGQSITISCTGTISDVGGYDFVSWYQHHPGKAPKLLIYDVNNRPSGVSHRFSGSKSGNTASLTISGLQAEDEATYYCSSYSNRHSLIVFGSGTQVVGLG
notes: as for B4
binding result [3]: binds

B8: 067-133 antibody (antibody, V domains shown)
VH: QVQLQQWGAGLLKPSETLSLTCAVYGGSFSGYYWSWIRQPPGKGLEWIGEINHSGSTNYNPSLKSRVTISVDTSKNQFSLKLSSVTAADTAVYYCARGGGVEALNYGMDVWGQGTTVTVSR
VL: QSALTQPASVSGSPGQTITISCTGTISDVGGYDFVSWYQHHPGKAPKLLIYDVNNRPSGVSHRFSGSKSGNTASLTISGLQAEDEATYYCSSYSNRHSLIVFGSGTQVVGLG
notes: as for B4
binding result [3]: binds

B9: 067-287 antibody (antibody, V domains shown)
VH: QVQLQQWGAGLLKPSETLSLTCTVHGGSFDDYYWTWIRQPPGGGLEWIGEMNSGRTYNYNPFLESRASIDVDTFKKQFSLALRSVTAADTAVYYCARGAYVNYYYIDVWGDGTTVTVSR
VL: QSALTQPASVSGSPGQTITISCTGTISDVGGYDFVSWYQHHPGKAPKLLIYDVNNRPSGVSHRFSGSKSGNTASLTISGLQAEDEATYYCSSYSNRHSLIVFGSGTQVVGLG
notes: as for B4
binding result [3]: binds

B10: 066-069 antibody (antibody, V domains shown)
VH: QVQLVQSEAEVKKPGESLKISCKGSGYSFTSYWIGWVRQMPGKGLEWMGIIYPGDSDTRYSPSFQGQVTISADKSISTAYLQWSSLKASDTAMYYCARTIGLGAFDIWGQGTTVTVSR
VL: SSELTQDPAVSVALGQTVRITCQGDSLRSYYASWYQQKPGQAPVLVIYGKNNRPSGIPDRFSGSSSGNTASLTITGAQAEDEADYYCNSRDSSGNHHYVFGTGTKVTVLG
notes: as for B4
binding result (CD46 antigen): binds

B11: 064-044 antibody (antibody, V domains shown)
VH: QVQLVQSGAEVKKPGASVKVSCKVSGYTLTELSMHWVRQAPGKGLEWMGGFDPEDGETIYAQKFQGRVTMTEDTSTDTAYMELSSLRSEDTAVYYCATDLDYYGSGSYAFDIWGQGTTVTVSR
VL: QSALTQPASVSGSPGQSITISCTGTSSDVGSYNLVSWYQQHPGKAPKLMIYEGSKRPSGVSNRFSGSKSGNTASLTISGLQAEDEADYYCSSYTSSSTWVFGGGTKLTVLG
notes: as for B4
binding result [4]: binds

B12: 065-030 antibody (antibody, V domains shown)
VH: QVQLQQWGAGLLKPSETLSLTCAAYGGSFSGYYWSWIRQPPGKGLEWIGEINHSGSTNYNPSLKSRVTISVDTSKNQFSLKLSSVTAADTAVYYCARTYYGSGSYQYNWFDPWGQGTLVTVSR
VL: QSVLTQPPSVSGAPGQRVTISCTGSSSNIGAGYDVHWYQQLPGTAPKLLIYGNSNRPSGVPDRFSGSKSGTSASLAITGLQAEDEADYYCQSYDSSLSGVVFGGGTKLTVLG
notes: as for B4
binding result [4]: binds

B13: 065-358 antibody (antibody, V domains shown)
VH: EVQLVESGGGLVQPGGSLRLSCAASGFTFSSYSMNWVRQAPGKGLEWVSYISSSSSTIYYADSVKGRFTISRDNAKNSLYLQMNSLRDEDTAVYYCARDNLEGLDYWGQGTLVTVSR
VL: SYVLTQPPSVSVAPGKTARITCGGNNIGSKSVHWYQQKPGQAPVLVIYYDSDRPSGIPERFSGSNSGNTATLTISRVEAGDEADYYCQVWDSSSDHVVFGGGTKLTVLG
notes: as for B4
binding result [4]: binds

B14: 066-019 antibody (antibody, V domains shown)
VH: QVQLQESGPGLVKPSQTLSLTCTVSGGSISSGDYYWSWIRQPPGKGLEWIGYIYYSGSTYYNPSLKSRVTISVDTSKNQFSLKLSSVTAADTAVYYCARGTGDLEWFDPWGQGTLVTVSR
VL: QSVLTQPPSVSGAPRQTVTISCSGSSSNIGQNSVTWYQRLPGEAPKLLIYYDDLLHSGVSDRFSGSKSGTSASLAISGLQSEDEAEYYCASWDDSLKGPVFGGGTKLTVLG
notes: as for B4
binding result [4]: binds

B15: 079-085 antibody (antibody, V domains shown)
VH: EVQLVESGGGLVQPGGSLRLSCAASGFTFSSYSMNWVRQAPGKGLEWVSYISSSSSTIYYADSVKGRFTISRDNAKNSLYLQMNSLRDEDTAVYYCAREGPRGSYYYFDYWGQGTLVTVSR
VL: NFMLTQPHSVSESPGKTVTISCTRSSGSIASNYVQWYQQRPGSAPTTVIYEDNQRPSGVPDRFSGSIDSSSNSASLTISGLKTEDEADYYCQSYDSSNWVFGGGTKLTVLG
notes: as for B4
binding result [4]: binds

Source: US20090203538A1 (INSTITUTE FOR ANTIBODIES, published 2009)
